Test results reported in paper PMC4770091, “Structural hot spots for the solubility of globular proteins” (Nature Communications, 2016).

Molecular target: the molecule itself
Assay: SEC; lysate of transfected HeLa cells (RIPA buffer) on Superdex S200 HR10/30 in hypotonic buffer (20 mM HEPES, 10 mM KCl, 1 mM MgCl2, 1 mM EDTA, 1 mM EGTA, 1 mM DTT, pH 7.5); fractions precipitated with trichloroacetic acid and blotted with anti-myc; molecular weight markers as standard

B1: human α-galactosidase (α-Gal A), wild type (enzyme, UniProt P06280 32-429, looked up)
chain: LDNGLARTPTMGWLHWERFMCNLDCQEEPDSCISEKLFMEMAELMVSEGWKDAGYEYLCIDDCWMAPQRDSEGRLQADPQRFPHGIRQLANYVHSKGLKLGIYADVGNKTCAGFPGSFGYYDIDAQTFADWGVDLLKFDGCYCDSLENLADGYKHMSLALNRTGRSIVYSCEWPLYMWPFQKPNYTEIRQYCNHWRNFADIDDSWKSIKSILDWTSFNQERIVDVAGPGGWNDPDMLVIGNFGLSWNQQVTQMALWAIMAAPLFMSNDLRHISPQAKALLQDKDVIAINQDPLGKQGYQLRQGDNFEVWERPLSGLAWAVAMINRQEIGGPRSYTIAVASLGKGVACNPACFITQLLPVKRKLGFYEWTSRLRSHINPTGTVLLQLENTMQMSLKDLL
notes: human α-galactosidase A, full-length cDNA NM_000169 cloned in pcDNA4/TO/myc-His; The vector pcDNA4/TO/myc-His may also add a His tag after the Myc tag; also called WT α-Gal; Agal; source: HeLa, transiently transfected, in lysate (RIPA buffer); not shown: Myc, C-terminal, kept
stoichiometry N: 2
